How the values were obtained:
[1] = target: Humanized anti-HER2 monoclonal antibody trastuzumab (human); assay: SPR
[2] = target: Recombinant protein G (PG) from Streptococcus sp. (Streptococcus sp.) (UniProt P19909); assay: QCM-D; PG covalently immobilised (APTES, glutaraldehyde) on a silica-coated QCM-D crystal, deactivated with Tris/ethanolamine, blocked with BSA; trastuzumab 1 ug/mL in 1 x PBS injected; Kelvin-Voigt model for mass and thickness
[3] = target: Linker-protein G (LPG) (Streptococcus sp.); assay: QCM-D; LPG physisorbed on a silica-coated QCM-D crystal, trastuzumab injected, PBS washes between injections; 1 x PBS pH 7.4, room temperature; Kelvin-Voigt model for mass and thickness

Recombinant protein G (PG) from Streptococcus sp. (from UniProt P19909 34-562) (natural protein)
Half-Life t1/2 [1]: 1.4 min | Kd [1]: 4.62 nM | koff [1]: 0.00824 s⁻¹ | kon [1]: 1.79e+06 M⁻¹ s⁻¹

Humanized anti-HER2 monoclonal antibody trastuzumab
Mass Deposited for Bound Antibody [2]: 451 ng/cm^2 | Thickness of Bound Antibody [2]: 7.43 nm | Mass Deposited for Bound Antibody [3]: 1200 ng/cm^2
